From patent US20250263489A1 come the findings set out here.

B1: humanized antibody hIGF13_PS (antibody, V domains shown)
VH: QVQLVQSGAEVKKPGASVKVSCKAPGYTFTSYWMHWVRQAPGQGLEWMGETNPSSSVTNYAQKFQGRVTLTVDTSTSTAYMELSSLRSEDTATYYCTIGRGRGFAYWGQGTLVTVSS
VL: DIQMTQSPSSLSASVGDRVTITCRASQNINFWLSWYQQKPGKVPKLLIYKASNLHTGVPSRFSGSGSGTDFTLTISSLQPEDVATYYCLQGQSYPYTFGGGTKLEIK
B2: humanized antibody hIGF25_PS (antibody, V domains shown)
VH: B1 VH with T93V
VL: B1 VL
B3: IGF11-16 with alanine substitution of W at position 32 (CDR-L1) (antibody, V domains shown)
VH: QIQLQQPGAELVKPGASVKLSCKAPGYTFTSYWMHWVKQRPGQGLEWIGETNPSNSVTNYNEKFKSKATLTVDKSSSTAYMQLSSLTSEDSAVYYCTIGRGRGFAYWGQGTLVTVSA
VL: B1 VL with T5N, V15L, R18T, V19I, W32A, Y36C, K42N, V43I, V83I
B4: IGF11-16 with alanine substitution of N at position 52 (CDR-H2) (antibody, mouse IgG1, V domains shown)
VH: B3 VH with N52A
VL: B1 VL with T5N, V15L, R18T, V19I, Y36C, K42N, V43I, V83I
B5: IGF11-16 with alanine substitution of E at position 50 (CDR-H2) (antibody, mouse IgG1, V domains shown)
VH: B3 VH with E50A
VL: B1 VL with T5N, V15L, R18T, V19I, Y36C, K42N, V43I, V83I
B6: IGF11-16 with alanine substitution of N at position 59 (CDR-H2) (antibody, mouse IgG1, V domains shown)
VH: B3 VH with N59A
VL: B1 VL with T5N, V15L, R18T, V19I, Y36C, K42N, V43I, V83I
B7: IGF11-16 with alanine substitution of W at position 33 (CDR-H1) (antibody, mouse IgG1, V domains shown)
VH: B3 VH with W33A
VL: B1 VL with T5N, V15L, R18T, V19I, Y36C, K42N, V43I, V83I
B8: IGF11-16 with alanine substitution of H at position 35 (CDR-H1) (antibody, mouse IgG1, V domains shown)
VH: B3 VH with H35A
VL: B1 VL with T5N, V15L, R18T, V19I, Y36C, K42N, V43I, V83I
B9: IGF11-16 with alanine substitution of R at position 102 (CDR-H3) (antibody, mouse IgG1, V domains shown)
VH: B3 VH with R102A
VL: B1 VL with T5N, V15L, R18T, V19I, Y36C, K42N, V43I, V83I
B10: IGF11-16 with alanine substitution of S at position 54 (CDR-H2) (antibody, mouse IgG1, V domains shown)
VH: B3 VH with S54A
VL: B1 VL with T5N, V15L, R18T, V19I, Y36C, K42N, V43I, V83I
B11: IGF11-16 with alanine substitution of F at position 64 (CDR-H2) (antibody, mouse IgG1, V domains shown)
VH: B3 VH with F64A
VL: B1 VL with T5N, V15L, R18T, V19I, Y36C, K42N, V43I, V83I
B12: IGF11-16 with alanine substitution of N at position 55 (CDR-H2) (antibody, mouse IgG1, V domains shown)
VH: B3 VH with N55A
VL: B1 VL with T5N, V15L, R18T, V19I, Y36C, K42N, V43I, V83I
B13: IGF11-16 with alanine substitution of S at position 56 (CDR-H2) (antibody, mouse IgG1, V domains shown)
VH: B3 VH with S56A
VL: B1 VL with T5N, V15L, R18T, V19I, Y36C, K42N, V43I, V83I
B14: mouse parent antibody IGF11-16 (antibody, mouse IgG1, kappa, V domains shown)
VH: B3 VH
VL: DIQMNQSPSSLSASLGDTITITCRASQNINFWLSWCQQKPGNIPKLLIYKASNLHTGVPSRFSGSGSGTDFTLTISSLQPEDIATYYCLQGQSYPYTFGGGTKLEIKR

Positions count from the first letter of the chain named.

One test deals with recombinant human IGF-1 receptor histidine tag (305-GR-050, R&D SYSTEMS) (human) (UniProt P08069). Description: SPR, Biacore T200, summary sentence of Table 16. Background: SPR reads the build-up and loss of mass on a sensor chip optically.
The term Kd denotes the concentration at which binding is half-saturated. Consider B1, for which the Kd was below 0.1 nM.
On to B2, for which the Kd was below 0.1 nM.

The next test has the same target. Nature of the test: antigen ELISA, plate-coated human recombinant IGF-1R, antibody at 5 nM, relative to IGF11-16. For orientation: An ELISA detects its analyte on a solid surface through an enzyme-linked reagent.
As to B3, the Binding @5 nM vs IGF11-16 (% vs IGF11-16) stood at 14.
For B4, the Binding vs IGF11-16 (EC50) (% vs IGF11-16) amounted to 21.
Turning to B5, the Binding vs IGF11-16 (EC50) (% vs IGF11-16) worked out at 9.
The same measure, in the same setting: to B6 belongs 112; to B7, 9; to B8, 49.
On the same count and under the same terms, in the case of B9 it was 9; in that of B10, 97.
For the molecule B11, the Binding vs IGF11-16 (EC50) (% vs IGF11-16) worked out at 84.
The same measure, in the same setting: in the case of B12 it was 94.
As to B13, the Binding vs IGF11-16 (EC50) (% vs IGF11-16) was 108.

For the next test the target is unchanged. Nature of the test: SPR, Biacore T200, 40 C, IGF-1R-His captured by anti-histidine-tag antibody, antibody as analyte, single cycle kinetics, 1:1 Binding model.
In general, koff refers to the rate constant with which the complex falls apart. Broadly, the kon is a measure of how fast the partners come together. On to B1, for which the Kd worked out at 0.0578 nM, the koff came out at 0.000158 s⁻¹ and the kon was 2.85e+06 M⁻¹ s⁻¹.
In the same order, the values of B14 are 0.0314 nM, 7.72e-05 s⁻¹ and 2.67e+06 M⁻¹ s⁻¹.
On the same counts, the results for B2 are 0.051 nM, 0.000135 s⁻¹ and 2.87e+06 M⁻¹ s⁻¹.
